Positions count from the first letter of the chain named. Names and notes keep the numbering of the source.
Legend:
EDIII-DV1 [1] = molecular target: T1, EDIII-DV1 (Dengue virus serotype 1, UniProt P17763 581-673); assay: SPR
T1 construct: also called EDIII of DV1; envelope glycoprotein domain III of Dengue virus serotype 1

EDIII-DV3 [2] = molecular target: T2, EDIII-DV3 (Dengue virus serotype 3, UniProt Q6YMS3 579-671); assay: SPR
T2 construct: also called EDIII of DV3; envelope glycoprotein domain III of Dengue virus serotype 3

[3] = molecular target: T3, Dengue virus serotype 3 (DV3), envelope (E) glycoprotein on virus (Dengue virus serotype 3); assay: cell-based or functional assay
[4] = molecular target: T4, Dengue virus serotype 1 (DV1), envelope (E) glycoprotein on virus (Dengue virus serotype 1); assay: cell-based or functional assay
[5] = molecular target: T5, Dengue virus serotype 2 (DV2), envelope (E) glycoprotein on virus (Dengue virus serotype 2); assay: cell-based or functional assay
EDIII-DV1 [6] = molecular target: T1, EDIII-DV1; assay: competition ELISA
EDIII-DV3 [7] = molecular target: T2, EDIII-DV3; assay: competition ELISA
EDIII-DV2 [8] = molecular target: T6, EDIII-DV2 (Dengue virus serotype 2, UniProt P14337 581-673); assay: competition ELISA
T6 construct: also called EDIII of DV2; envelope glycoprotein domain III of Dengue virus serotype 2

EDIII-DV1 [9] = molecular target: T1, EDIII-DV1; assay: competition ELISA, equilibrium in solution
EDIII-DV3 [10] = molecular target: T2, EDIII-DV3; assay: competition ELISA, equilibrium in solution
EDIII-DV2 [11] = molecular target: T6, EDIII-DV2; assay: competition ELISA, equilibrium in solution
EDIII-DV1 [12] = molecular target: T1, EDIII-DV1; assay: SPR; remark: listed apart in the source
EDIII-DV3 [13] = molecular target: T2, EDIII-DV3; assay: SPR; remark: listed apart in the source
EDIII-DV2 [14] = molecular target: T6, EDIII-DV2; assay: SPR
EDIII-DV2 [15] = molecular target: T6, EDIII-DV2; assay: indirect ELISA, coated recombinant EDIII
EDIII-DV1 [16] = molecular target: T1, EDIII-DV1; assay: indirect ELISA, coated recombinant EDIII
EDIII-DV3 [17] = molecular target: T2, EDIII-DV3; assay: indirect ELISA, coated recombinant EDIII
EDIII-DV4 [18] = molecular target: T7, EDIII-DV4 (Dengue virus serotype 4, UniProt P09866 580-672); assay: indirect ELISA, coated recombinant EDIII
EDIII-DV4 [19] = molecular target: T7, EDIII-DV4; assay: calculated from KD, ΔG = RTln(KD) at 25° C
EDIII-DV4 [20] = molecular target: T7, EDIII-DV4; assay: competition ELISA, equilibrium in solution
EDIII-DV2 [21] = molecular target: T6, EDIII-DV2; assay: SPR; remark: listed apart in the source
[22] = molecular target: T3, Dengue virus serotype 3 (DV3), envelope …; assay: cell-based or functional assay; remark: listed apart in the source
[23] = molecular target: Dengue virus serotype 4 (DV4), envelope (E) glycoprotein on virus (Dengue virus serotype 4); assay: cell-based or functional assay
[24] = molecular target: T4, Dengue virus serotype 1 (DV1), envelope …; assay: cell-based or functional assay; remark: listed apart in the source
[25] = molecular target: T5, Dengue virus serotype 2 (DV2), envelope …; assay: cell-based or functional assay; remark: listed apart in the source

B1: 4E11 WT (antibody, V domains shown)
VH: VKLLEQSGAELVKPGASVRLSCTASGFNIKDTYMSWVKQRPEQGLEWIGRIDPANGDTKYDPKFQGKATITADTSSNTAYLHLSSLTSGDTAVYYCSRGWEGFAYWGQGTLVTVSA
VL: ELVMTQTPASLAVSLGQRATISCRASENVDRYGNSFMHWYQQKAGQPPKLLIYRASNLESGIPARFSGSGSRTDFTLTINPVEADDVATYFCQRSNEVPWTFGGGTKLEIKR
notes: also called wt 4E11; WT 4E11
With B1 as the binder, how does the Kd (EDIII-DV1 [1]) read?
Its Kd is 0.5 nM.

And the Kd (EDIII-DV3 [2])?
The Kd was 7.58 nM.

And the “IC50 (read off the curve)” value [3]?
Its value is ~0.5 µg/mL.

And the “IC50 (read off the curve)” value [4]?
Its value is ~0.06 µg/mL.

And the “IC50 (read off the curve)” value [5]?
Its value is ~0.03 µg/mL.

What about the Kd (EDIII-DV1 [6]) of the same binder?
Its Kd is 0.328 nM.

What about the Kd (EDIII-DV3 [7]) of the same binder?
Its Kd is 21.8 nM.

What about the Kd (EDIII-DV2 [8]) of the same binder?
Its Kd is 5.2 nM.

And the Kd (EDIII-DV1 [9])?
The Kd was 0.328 nM.

And the Kd (EDIII-DV3 [10])?
Its Kd is 21.8 nM.

And the Kd (EDIII-DV2 [11])?
Its Kd is 5.2 nM.

What about the koff (EDIII-DV1 [12]) of the same binder?
The koff was 0.000551 s⁻¹.

And the kon (EDIII-DV1 [12])?
Its kon is 1.11e+06 M⁻¹ s⁻¹.

What about the koff (EDIII-DV3 [13]) of the same binder?
Its koff is 0.0102 s⁻¹.

And the kon (EDIII-DV3 [13])?
Its kon is 1.34e+06 M⁻¹ s⁻¹.

And the koff (EDIII-DV2 [14])?
Its koff is 0.0123 s⁻¹.

And the kon (EDIII-DV2 [14])?
Its kon is 1.98e+06 M⁻¹ s⁻¹.

B2: 4E11 VL-R31K single mutant (antibody, V domains shown)
VH: B1 VH
VL: B1 VL with R31K
Does B2 bind (EDIII-DV2 [15])?
Result: binds

B3: 4E11 VL Ser60Arg single mutant (antibody, V domains shown)
VH: B1 VH
VL: B1 VL with S60R
notes: also called S60R
Does B3 bind (EDIII-DV1 [16])?
Result: binds

Does B3 bind (EDIII-DV3 [17])?
Result: binds

Does B3 bind (EDIII-DV4 [18])?
Result: binds

Does B3 bind (EDIII-DV2 [15])?
Result: binds

B4: 4E11 VH-A55E single mutant (antibody, V domains shown)
VH: B1 VH with A54E
VL: B1 VL
Which ΔG (EDIII-DV4 [19]) does the source give for B4 here?
The ΔG was -7.29 kcal/mol.

And the “ΔΔG (ΔGmutant - ΔGWT)” value (EDIII-DV4 [19])?
Its value is -1.31 kcal/mol.

What about the Kd (EDIII-DV4 [20]) of the same binder?
Its Kd is 4440 nM.

B5: 4E11 VL-N57E single mutant (antibody, V domains shown)
VH: B1 VH
VL: B1 VL with N57E
Which ΔG (EDIII-DV4 [19]) does the source give for B5 here?
The ΔG was -6.92 kcal/mol.

What about the “ΔΔG (ΔGmutant - ΔGWT)” value (EDIII-DV4 [19]) of the same binder?
The value was -0.93 kcal/mol.

And the Kd (EDIII-DV4 [20])?
The Kd was 8410 nM.

B6: 4E11 VL Glu59Asn single mutant (antibody, V domains shown)
VH: B1 VH
VL: B1 VL with E59N
notes: also called E59N
Does B6 bind (EDIII-DV1 [16])?
Result: binds

Does B6 bind (EDIII-DV3 [17])?
Result: binds

Does B6 bind (EDIII-DV4 [18])?
Result: binds

Does B6 bind (EDIII-DV2 [15])?
Result: binds

B7: 4E11 VL Asn57Ser single mutant (antibody, V domains shown)
VH: B1 VH
VL: B1 VL with N57S
Does B7 bind (EDIII-DV1 [16])?
Result: binds

Does B7 bind (EDIII-DV3 [17])?
Result: binds

Does B7 bind (EDIII-DV4 [18])?
Result: binds

Does B7 bind (EDIII-DV2 [15])?
Result: binds

B8: 4E11 VL Ser60Tyr single mutant (antibody, V domains shown)
VH: B1 VH
VL: B1 VL with S60Y
notes: also called S60Y
Does B8 bind (EDIII-DV1 [16])?
Result: binds

Does B8 bind (EDIII-DV3 [17])?
Result: binds

Does B8 bind (EDIII-DV4 [18])?
Result: binds

Does B8 bind (EDIII-DV2 [15])?
Result: binds

B9: 4E11 VL-E59Q single mutant (antibody, V domains shown)
VH: B1 VH
VL: B1 VL with E59Q
Which results are given for B9?
ΔG (EDIII-DV4 [19]): -6.76 kcal/mol; ΔΔG (ΔGmutant - ΔGWT) (EDIII-DV4 [19]): -0.77 kcal/mol; binding result (EDIII-DV2 [15]): binds; Kd (EDIII-DV4 [20]): 11000 nM

B10: 4E5A (antibody, V domains shown)
VH: B1 VH with A54E
VL: B1 VL with R31K, N57E, E59Q, S60W
notes: also called 4E11-5A; quintuple mutant antibody
Which results are given for B10?
Kd (EDIII-DV2 [21]): 0.7 nM; FRNT50 [22]: 0.77 µg/mL; FRNT50 [23]: 4 µg/mL; FRNT50 [24]: 0.19 µg/mL; FRNT50 [25]: 0.028 µg/mL

B11: 4E11 VH Ala55Asp single mutant (antibody, V domains shown)
VH: B1 VH with A54D
VL: B1 VL
notes: also called A55D
Which results are given for B11?
binding result (EDIII-DV1 [16]): binds; binding result (EDIII-DV3 [17]): binds; binding result (EDIII-DV4 [18]): binds; binding result (EDIII-DV2 [15]): binds

B12: 4E11 VL-S60W single mutant (antibody, V domains shown)
VH: B1 VH
VL: B1 VL with S60W
Does B12 bind (EDIII-DV2 [15])?
Result: binds

— US20200264176A1 (MIT, published 2020)
